Patent publication US11318209B2, “Targeting macula densa cells as a new therapeutic approach for kidney disease” (MACULA DENSA CELL LLC, priority 2016, dated 2022)
“Also recorded” adds a separate entry of the source.

How the values were obtained:
[1] = test system: Ki67+ proliferating cells in the JGA area; assay: Ki67 immunofluorescence of low salt diet+captopril-treated mouse kidneys; assay type: in vivo
Excerpt: FIG. 7. Ki67 (red nuclei) immunofluorescence of control (FIG. 7A-FIG. 7B) and low salt diet+captopril-treated mouse kidneys (FIG. 7C-FIG. 7D). In contrast to control untreated (FIG. 7A) and control+7-NI (FIG. 7B), a high density of Ki67+ proliferating cells are visible around the JGA interstitium in response to low salt diet+captopril treatment (FIG. 7C). […] Nuclei were labeled blue with DAPI. n=4 each group, §: P<0.05 versus ctrl, *: P<0.05 versus untreated low salt+captopril.
(§1) The increased density of NG2+ cells was 70% inhibited by the administration of the selective COX-2 inhibitor SC58236 (FIG. 6E).

[2] = test system: NG2+ cells in the JGA area; assay: NG2 immunofluorescence of low salt diet+captopril-treated mouse kidneys; assay type: in vivo
Excerpt: FIG. 6. NG2 (FIG. 6A, green) and renin (FIG. 6B, red) immunofluorescence of low salt diet+captopril-treated mouse kidneys. […] Nuclei were labeled blue with DAPI. n=4 each group, *: P<0.05.
as §1

[3] = test system: NG2-derived progenitor cells; assay: Kidney tissue remodeling after 10 days of loop diuretic; assay type: in vivo; details: 10 days of treatment in an animal model
Excerpt: FIG. 22. […] Increase in renal cortical mesenchyme-derived cell density (red), remodeling of the entire length of the glomerular (G) arterioles by NG2-derived progenitor cells within 10 days in response to loop diuretics.
The Inventors' initial experimental strategy to show proof-of-principle for this macula densa mechanism was to apply gold-standard whole body approaches to activate this new mechanism (e.g. dietary salt restriction and loop diuretics), which have been known for decades to improve kidney function. One example is the use of the loop diuretic furosemide, which blocks salt-sensing by MD cells and therefore is equivalent to the effects of low dietary salt intake as shown in FIGS. 6-7, 10). […] Furosemide and other loop diuretics have been in human clinical use for decades as efficient anti-hypertensive therapies. In addition to diuretics, the Inventors will explore other small molecules that may have specific MD cell targeting characteristics, and may activate the MD kidney repair program.

MMDD1 cells = assay: GFP transfection with MMDD1 homing peptide+GFP cDNA complex; assay type: cell-based; details: overnight incubation, fluorescence microscopy
Excerpt: FIG. 19. Selective targeting of MD cells with the MMDD1 homing peptide. […] Note the diffuse cytosolic GFP expression in MMDD1 cells indicating successful escape of the endosomes after fusion protein internalization.
In preliminary data, the Inventors identified a MMDD1 homing peptide based on phage-display, used it as targeting domain, and fused to a histidine-rich amphipathic peptide, optimized for DNA binding properties and gene delivery through endosomal escape. The fusiogenic peptide was synthesized:
The peptide was mixed with pcDNA3.1 GFP and incubated for 1 hour at room temperature. The solution was added to cultured MMDD1 cells (MD cell line), HEK293 cells and M-1 cells (collecting duct cell line), and incubated overnight at 37° C. in a humidified atmosphere (95% air and 5% CO2). Transfection was measured by fluorescence microscopy.

sclerotic glomeruli = assay: ADR mouse model of GS, renal subcapsular treatment; assay type: in vivo
Excerpt: FIG. 17. The effects of CCN1 and MMDD1 conditioned media treatment in the ADR mouse model of GS. FIG. 17A: illustration of study design. FIG. 17B: Effects of CCN1 and MMDD1 media on the number of Ki67+ cells (IF, red) per field. FIG. 17C: Effects of CCN1 and MMDD1 media on the number of p57+ podocytes (IF, red) per glomerulus. Green is autofluorescence for visualization of tissue anatomy.
In other preliminary experiments, mouse (ADR nephropathy resembling human-like FSGS) and rat (PAN-induced FSGS) models of CKD were established. Single renal subcapsular treatment with exogenous recombinant CCN1 was performed at a time point (two weeks after second ADR dose in mice, or after the second dose of PAN in rats) when severe and persistent glomerular pathology was confirmed (FIG. 17A), with subsequent two weeks' follow-up. Animals were placed in metabolic cages weekly for urine collection, and tissues (kidney, aorta, heart, brain, blood) harvested 4 weeks (after first ADR dose in mice), or 2 months (after first PAN dose in rats).
Since the main problem in kidney disease appears to be reduced or absent production of CCN1 by macula densa cells, the Inventors can supplement recombinant CCN1 peptide delivered specifically into the renal parenchyma. In preliminary studies illustrated in FIG. 17, the Inventors used subcapsular injections of recombinant CCN1. However, this is invasive procedure, which would have limited clinical use. A much better non-invasive approach the Inventors are currently testing is to give systemic iv injection of recombinant CCN1 targeted specifically to the kidney blood supply. This is performed by conjugating recombinant CCN1 to a glomerulus homing peptide. The promise and therapeutic benefit of this approach is shown in FIG. 17 in a pre-clinical animal model of CKD.
In order to reproduce all of these MD-specific protective factors for therapeutic use, the Inventors utilized the existing MMDD1 in vitro cell culture model of MD cells that endogenously produce these factors. […]

renin cell = assay: Renin cell proliferation and migration; assay type: cell-based; details: not shown
Excerpt: (§2) CCN1 had no effect on renin cell proliferation and migration (not shown).

cultured GEnCs [4] = assay: Endothelial tube formation assay (in vitro angiogenesis); assay type: cell-based; details: standard doses of CCN1 and VEGF
Method: FIG. 11. Robust effect of CCN1 on GEnCs: in vitro angiogenesis. Endothelial tube formation assays were performed using cultured GEnCs and standard doses of CCN1 and VEGF. *: P<0.05. Results are shown in FIG. 11A, FIG. 11B, FIG. 11C, FIG. 11D and FIG. 11E.
as §2
In order to reproduce all of these MD-specific protective factors for therapeutic use, the Inventors utilized the existing MMDD1 in vitro cell culture model of MD cells that endogenously produce these factors. Mimicking the in vivo physiological activation of MD cells (low salt diet), the NaCl content of MD tissue culture medium was reduced by half as described earlier. […] The therapeutic strategy with this medium (illustrated in FIG. 21) is the same as above for CCN1, to inject it under the renal capsule for specific kidney targeting.

[5] = test system: glomerular endothelial cells; assay: Serial MPM imaging of glomerular endothelial cells in Cdh5-Confetti mice; assay type: in vivo, mouse
Method: FIG. 15. Tracking the fate of the same glomerular endothelial cells over time in vivo at the single cell level. FIG. 15A-FIG. 15B: Serial MPM imaging of the same glomerulus (G) in the same Cdh5-Confetti mice was performed daily for one week. Endothelial cell distribution was registered using Z-sectioning of the glomerulus from top to bottom at each time point. Compared to baseline (FIG. 15A) when cells of all Confetti colors (membrane-bound CFP (blue), nuclear GFP (green), cytosolic YFP (yellow) and RFP (red)) were evenly distributed within the glomerulus, monochromatic glomeruli developed as early as 4 days (FIG. 15B) after endothelial injury (L-NAME treatment) indicating the presence of single precursor cell-derived colonies. Note the presence of cells in multiple colors in the afferent arteriole (AA, arrow) at baseline (FIG. 15A) including one GFP+ (green) and one RFP+ (magenta) cell at the terminal segment, and the identically colored intra-glomerular cell colonies (mostly green, some magenta) 4 days later (FIG. 15B). FIG. 15C: Schematic of the three directly adjacent JGA cell types (MD, JG renin, and AA EPCs) forming a functional syntitium via cell-to-cell crosstalk to remodel the glomerulus.

cultured GEnCs [6] = assay: GEnC cell proliferation and cell migration (scratch opening assay); assay type: cell-based
[7] = BalbC Adriamycin mouse model of FSGS; assay type: in vivo
Excerpt: FIG. 24. The robust protective effects of treatment with recombinant CCN1 or conditioned MD cell media in the BalbC Adriamycin mouse model of FSGS in vivo. FIG. 24A: Albuminuria (albumin/creatinine ratio, ACR) in the various control and treatment groups before ADR-induced kidney injury (baseline), two weeks later before the start of treatments, and 1 and 4 weeks after treatment with saline, recombinant CCN1, control or low salt-conditioned MD cell media. FIG. 24B-FIG. 24C: Trichrome staining of kidney histological sections.
In other work The Inventors tested the effects and therapeutic potential of the aforementioned novel biologicals. The robust protective effects of treatment with recombinant CCN1 or conditioned MD cell media in the BalbC Adriamycin mouse model of human-like focal segmental glomerulosclerosis (FSGS) in vivo is shown in FIG. 24. […] The development of albuminuria, the most important and clinically relevant functional readout of the failing kidneys was measured in the various control and experimental treatment groups before ADR-induced kidney injury (baseline), two weeks later before the start of treatments, and 1 and 4 weeks after treatment with saline, recombinant CCN1, control or low salt-conditioned MD cell media.

[8] = low salt diet+captopril treatment for one week

For `O=[N+]([O-])c1cccc2cn[nH]c12` [7-NI], the “proliferation of NG2+ cells” value [1, 8] was “completely abolished” and the “number of Ki67+ cells in the JGA area” value ([1]; low salt diet+captopril-treated, n=4 each group, P<0.05 versus untreated low salt+captopril) was “significantly reduced”.

With `NS(=O)(=O)c1ccc(-n2nc(C(F)(F)F)cc2-c2ccc(Cl)cc2)cc1` [SC58236] the “inhibition of the increased density of NG2+ cells” value [2, 8] was 70% and the “number of NG2+ cells in the JGA area” value ([2]; low salt diet+captopril-treated, n=4 each group, P<0.05) was “significantly reduced”.

For `NS(=O)(=O)c1cc(C(=O)O)c(NCc2ccco2)cc1Cl` [furosemide], the “kidney tissue (vascular and glomerular) remodeling” value [3] was “significant kidney tissue remodeling; also recorded: Robust vascular and glomerular remodeling”.

In the case of “NH2-ACFNDSDMLCGGGKKHLLAHALHLLALLALHLAHALAHLKKA-NH2 (H-ACFNDSDMLCGGGKKHLLAHALHLLALLALHLAHALAHLKKA-NH2; cysteine pairing not given here) [MMDD1 homing peptide+GFP cDNA complex]”, the “transfection with GFP” value (MMDD1 cells) is reported as “successful transfection”.

B1: CCN1: recombinant CCN family member 1, secreted matricellular protein, angiogenic inducer (protein, UniProt O00622 25-381, looked up)
CCN family member 1: TCPAACHCPLEAPKCAPGVGLVRDGCGCCKVCAKQLNEDCSKTQPCDHTKGLECNFGASSTALKGICRAQSEGRPCEYNSRIYQNGESFQPNCKHQCTCIDGAVGCIPLCPQELSLPNLGCPNPRLVKVTGQCCEEWVCDEDSIKDPMEDQDGLLGKELGFDASEVELTRNNELIAVGKGSSLKRLPVFGMEPRILYNPLQGQKCIVQTTSWSQCSKTCGTGISTRVTNDNPECRLVKETRICEVRPCGQPVYSSLKKGKKCSKTKKSPEPVRFTYAGCLSVKKYRPKYCGSCVDGRCCTPQLTRTVKMRFRCEDGETFSKNVMMIQSCKCNYNCPHANEAAFPFYRLFNDIHKFRD
In the case of B1, the proteinuria (sclerotic glomeruli; preliminary mouse and rat studies of GS) is reported as “diminished proteinuria”, the “increase in Ki67+ proliferating cells in glomeruli” value (sclerotic glomeruli; single renal subcapsular treatment, two weeks' follow-up) is reported as greater than 20 fold and the “number of p57+ podocytes” value (sclerotic glomeruli; single treatment, treated versus control groups) is reported as “significantly increased”. The “effect on renin cell proliferation and migration” value (renin cell) was “no effect”, the “in vitro angiogenesis (tube formation assay) compared with VEGF” value (cultured GEnCs [4]) was “more effective” and the “Confetti cell tracing units in glomeruli” value ([5]; subcapsular treatment for one week) was “high number of Confetti cells formed monochromatic tracing units”. The “remodeling of the glomerular endothelial layer” value ([5]; within a few days) was “rapid and robust remodeling”, the “effect on cell proliferation and migration” value (cultured GEnCs [6]; added to the media of cultured GEnCs) was “robust dose-dependent effect” and the “effects on GEnCs in presence of blocking antibodies for integrins αvβ3 and VEGF receptor blockers” value (cultured GEnCs [6]; not shown) was “almost completely abolished”. The “albuminuria (albumin/creatinine ratio, ACR)” value ([7]; treatment for 5 consecutive days started two weeks after 8 mg/kg ADR iv, 1 and 4 weeks after treatment) was “robust decline” and the “glomerulosclerosis and tissue fibrosis (trichrome kidney histology)” value ([7]; versus control saline-treated) was “improved pathology”.
